The results in this text go back to publication PMC2700515 (The Journal of Cell Biology, 2009).

Assay [1] deals with T1, hCen3, purified (GST removed) (human, UniProt O15182 1-167).
T1 sequence: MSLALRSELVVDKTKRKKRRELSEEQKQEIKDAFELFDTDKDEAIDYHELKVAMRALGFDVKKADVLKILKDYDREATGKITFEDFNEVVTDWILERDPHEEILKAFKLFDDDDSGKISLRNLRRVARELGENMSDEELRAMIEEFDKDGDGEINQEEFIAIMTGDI
Kind of assay: pull-down.

Assay [2] deals with T2, hCen2, purified (GST removed) (human, UniProt P41208 1-172).
T2 sequence: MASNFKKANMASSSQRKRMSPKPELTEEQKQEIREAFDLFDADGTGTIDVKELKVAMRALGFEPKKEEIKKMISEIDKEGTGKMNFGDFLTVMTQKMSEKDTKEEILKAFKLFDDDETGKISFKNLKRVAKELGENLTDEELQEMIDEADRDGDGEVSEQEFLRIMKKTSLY
Kind of assay: pull-down.

B1: GST-hPOC5 CBR2+3 (aa 222-304) (domain or fragment)
chain: EISIGRKDEVISSLSHAIGKQKEKIELMRTFFHWRIGHVRARQDVYEGKLADQYYQRTLLKKVWKVWRSVVQKQWKDVVERAC
Regarding B1, the binding result in assay [1] and in assay [2] was “binds” in each case.
